Earlier results in article PMC8495453.

Target: Galectin-3 (Homo sapiens) (UniProt P17931)
Sequence (P17931 2-250): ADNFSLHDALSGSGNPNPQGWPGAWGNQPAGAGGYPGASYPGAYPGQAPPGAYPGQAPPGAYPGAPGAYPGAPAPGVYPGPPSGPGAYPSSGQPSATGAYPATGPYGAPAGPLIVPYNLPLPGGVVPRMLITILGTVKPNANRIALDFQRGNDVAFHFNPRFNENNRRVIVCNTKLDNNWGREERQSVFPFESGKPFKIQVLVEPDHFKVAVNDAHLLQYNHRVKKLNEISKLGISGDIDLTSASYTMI

LAMP1 29-382, sequence (P11279 29-382): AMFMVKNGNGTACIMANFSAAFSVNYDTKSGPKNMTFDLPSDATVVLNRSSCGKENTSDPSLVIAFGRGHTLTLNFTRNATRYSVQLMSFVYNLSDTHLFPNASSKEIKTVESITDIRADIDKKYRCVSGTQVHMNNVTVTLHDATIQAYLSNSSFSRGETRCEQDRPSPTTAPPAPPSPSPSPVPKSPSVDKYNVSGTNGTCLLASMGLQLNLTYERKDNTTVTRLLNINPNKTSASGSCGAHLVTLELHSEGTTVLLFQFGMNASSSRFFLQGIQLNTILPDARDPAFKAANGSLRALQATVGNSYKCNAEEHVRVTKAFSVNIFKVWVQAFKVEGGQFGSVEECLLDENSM

Kd: < 25 nM
Substance: LAMP1 29-382 (from UniProt P11279)
